Test results as given in US20250388673A1 (HIFIBIO, published 2025).
Positions count from the first letter of the chain named.

T1: human BTLA (human, UniProt Q7Z6A9 31-289)
T1 construct: also called hBTLA; HEK293.hBTLA
T1 sequence: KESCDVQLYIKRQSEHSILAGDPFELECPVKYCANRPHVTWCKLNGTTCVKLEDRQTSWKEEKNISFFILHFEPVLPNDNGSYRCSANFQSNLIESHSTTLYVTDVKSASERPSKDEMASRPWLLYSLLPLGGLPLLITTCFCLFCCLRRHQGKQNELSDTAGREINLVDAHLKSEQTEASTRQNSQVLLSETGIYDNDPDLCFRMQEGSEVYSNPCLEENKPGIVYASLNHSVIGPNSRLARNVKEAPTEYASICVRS

B1: HFB6-5hz1-hG1 (antibody, human IgG1, V domains shown)
VH: QVQLVQSGAEVKKPGSSVKVSCKASGVNIKDTYMYWVRQAPGQGLEWIGRIDPANGYARYAQKFQGRATITADESTSTAYMELSSLRSEDTAVYYCAVYDGYYESFDVWGQGTLVTVSS
VL: DIQMTQSPSSLSASVGDRVTITCRSSQSLLDSDGKSYLNWLQQKPGKAPKRLIYLVSKLDSGVPSRFSGSGSGTDFTLTISSLQPEDFATYYCWQGTLFPRTFGQGTKLEIK
notes: Humanized variant of HFB6-5, human IgG1 (hG1)
B2: HFB6-5hz5-hG1 (antibody, human IgG1, V domains shown)
VH: QVQLQESGPGLVKPSGTLSLTCAASGVNIKDTYMYWVRQPPGKGLEWIGRIDPANGYTRYNPSFKSRATISADKSKNQASLKLSSVTAADTAVYYCAVYDGYYESFDVWGQGTLVTVSS
VL: B1 VL
notes: as for B1
B3: HFB6-4hz1-hG1 (antibody, V domains shown)
VH: QVQLVQSGAEVKKPGSSVKVSCKTSGFNIKDTYIHWVRQAPGQGLEWIGRNDPANGNTKYAQKFQGRATITADESTSTAYMELSSLRSEDTAVYYCASYEGYYERFGYWGQGTLVTVSS
VL: B1 VL with S32R, G96D, L98H, R101Y
notes: Humanized variant of HFB6-4, human IgG1 (hG1); Only VH and VL are tied to the name
B4: HFB6-5hz13-hG1 (antibody, human IgG1, V domains shown)
VH: B1 VH
VL: EIVLTQSPGTLSVSPGERATISCRSSQSLLDSDGKTYLNWLQQKPGQAPRRLIYLVSKRDTGVPDRFSGSGSGTDFTLTISRVEPEDFAVYYCWQGTLFPRTFGQGTKLEIK
notes: as for B1
B5: HFB6-5hz7-hG1 (antibody, human IgG1, V domains shown)
VH: B1 VH
VL: DVVMTQSPLSLPVTLGQPASISCRSSQSLLDSDGKTYLNWLQQRPGQSPRRLIYLVSKRDSGVPDRFSGSGSGTDFTLKISRVEAEDLGVYYCWQGTLFPRTFGQGTKLEIK
notes: as for B1
B6: HFB6-5hz6-hG1 (antibody, human IgG1, V domains shown)
VH: EVQLVQSGAEVKKPGESLKISCKGSGVNIKDTYMYWVRQMPGKGLEWIGRIDPANGYTRYSPSFQGQVTISADKSISTAYLQLSSLKASDTAMYYCAVYDGYYESFDVWGQGTLVTVSS
VL: B1 VL
notes: as for B1
B7: HFB6-5hz3-hG1 (antibody, human IgG1, V domains shown)
VH: EVQLVESGGGLVQPGRSLRLSCTASGVNIKDTYMYWVRQAPGKGLEWVGRIDPANGYTRYTASFKGRATISADGSKSIAYLQMNSLKTEDTAVYYCAVYDGYYESFDVWGQGTLVTVSS
VL: B1 VL
notes: as for B1
B8: HFB6-5hz8-hG1 (antibody, human IgG1, V domains shown)
VH: B1 VH with S16A, A58T, E74T, A79V
VL: B5 VL
notes: as for B1
B9: HFB6-5hz4-hG1 (antibody, human IgG1, V domains shown)
VH: B7 VH with R16G, R19K, T23A, P41S, V48I, T61A, G74D, S77N, I78T, M83L
VL: B1 VL
notes: as for B1
B10: HFB6-5hz2-hG1 (antibody, human IgG1, V domains shown)
VH: B1 VH with S16A, A58T, E74T, A79V
VL: B1 VL
notes: as for B1
B11: HFB6-5hz14-hG1 (antibody, human IgG1, V domains shown)
VH: B1 VH with S16A, A58T, E74T, A79V
VL: B4 VL
notes: as for B1
B12: HFB6-4-hG1 (human-mouse chimeric monoclonal antibody) (antibody, human IgG1, kappa, V domains shown)
VH: EVQLQQSGAELVNPGASVKLSCTTSGFNIKDTYIHWVKQRPEQGLEWIGRNDPANGNTKYDPKFQGKATITADTSSSTAYLQLSSLTSEDTAVYYCASYEGYYERFGYWGQGTLVTVSA
VL: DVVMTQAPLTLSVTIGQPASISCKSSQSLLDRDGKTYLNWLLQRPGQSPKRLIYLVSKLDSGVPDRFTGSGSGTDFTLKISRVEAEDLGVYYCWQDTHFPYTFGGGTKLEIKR
notes: also called HFB6-4 parental antibody
B13: HFB6-4hz21-hG1 (antibody, human IgG1, V domains shown)
VH: EVQLVESGGGLVQPGRSLRLSCTTSGFNIKDTYIHWFRQAPGKGLEWVGRNDPANGNTKYTASFKGRATISADGSKSIAYLQMNSLKTEDTAVYYCASYEGYYERFGYWGQGTLVTVSS
VL: DIVMTQSPDSLAVSLGERATINCKSSQSLLDRDGKTYLNWLQQKPGQSPKRLIYLVSKLDSGVPDRFSGSGSGTDFTLTISSLQAEDLAVYYCWQDTHFPYTFGQGTKLEIK
notes: Humanized variant of HFB6-4, human IgG1 (hG1)
B14: HFB6-4hz23-hG1 (antibody, human IgG1, V domains shown)
VH: QVQLQESGPGLVKPSGTLSLTCAVSGFNIKDTYIHWVRQPPGKGLEWIGRNDPANGNTKYNPSFKSRATISADKSKNQASLKLSSVTAADTAVYYCASYEGYYERFGYWGQGTLVTVSS
VL: B13 VL
notes: as for B13
B15: HFB6-4hz24-hG1 (antibody, human IgG1, V domains shown)
VH: EVQLVQSGAEVKKPGESLKISCKTSGFNIKDTYIHWVRQMPGKGLEWIGRNDPANGNTKYSPSFQGQVTISADKSISTAYLQLSSLKASDTAMYYCASYEGYYERFGYWGQGTLVTVSS
VL: B13 VL
notes: as for B13
B16: HFB6-4hz22-hG1 (antibody, human IgG1, V domains shown)
VH: EVQLVESGGGLVQPGGSLKLSCATSGFNIKDTYIHWVRQASGKGLEWIGRNDPANGNTKYAASFKGRATISADDSKNTAYLQLNSLKTEDTAVYYCASYEGYYERFGYWGQGTLVTVSS
VL: B13 VL
notes: as for B13
B17: HFB6-5hz9-hG1 (antibody, human IgG1, V domains shown)
VH: B7 VH
VL: B5 VL
notes: as for B1
B18: HFB6-5hz11-hG1 (antibody, human IgG1, V domains shown)
VH: B2 VH
VL: B5 VL
notes: as for B1
B19: HFB6-5hz15-hG1 (antibody, human IgG1, V domains shown)
VH: B7 VH
VL: B4 VL
notes: as for B1
B20: HFB6-5hz12-hG1 (antibody, human IgG1, V domains shown)
VH: B6 VH
VL: B5 VL
notes: as for B1
B21: HFB6-5hz16-hG1 (antibody, human IgG1, V domains shown)
VH: B7 VH with R16G, R19K, T23A, P41S, V48I, T61A, G74D, S77N, I78T, M83L
VL: B4 VL
notes: as for B1
B22: HFB6-5hz10-hG1 (antibody, human IgG1, V domains shown)
VH: B7 VH with R16G, R19K, T23A, P41S, V48I, T61A, G74D, S77N, I78T, M83L
VL: B5 VL
notes: as for B1

The binders below were run against T1, human BTLA (assay: flow cytometry, HEK293 cells overexpressing human BTLA).
Experimental: HEK293 cells overexpressing human BTLA and Expi293 cells overexpressing cynomolus BTLA were incubated with different concentrations of humanized anti-BTLA antibodies. Anti-BTLA antibody binding to target cells were quantified with an AF647-conjugated anti-human IgG Fc secondary antibody by flow cytometry.

binding result	Binder
binds	B1
binds	B2
binds	B3
binds	B4
binds	B5
binds	B6
binds	B7
binds	B8
binds	B9
binds	B10
binds	B11
binds	B12
binds	B13
binds	B14
binds	B15
binds	B16
binds	B17
binds	B18
binds	B19
binds	B20
binds	B21
binds	B22
